Holding throughout (conditions): partners not purified
In test [1] the target is T1, Ski Smad-binding domain (amino acids 2–56) on the 3xFlag-thioredoxin scaffold (UniProt P12755 2-56).
T1 construct: Ski, amino acids 2–56; cloned into the unique RsrII site of pCI-3xFLAG-Trx; also called Ski aa2–56; TrxSki; source: HEK-293, transfected, in lysate
T1 sequence (looked up): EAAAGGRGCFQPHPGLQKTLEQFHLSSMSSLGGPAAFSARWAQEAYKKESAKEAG
As to the kind of experiment: co-IP; LUMIER: Renilla luciferase-Smad3 and Flag-tagged partner co-expressed with constitutively active Alk5 in HEK-293; Flag protein captured from cleared lysate (TNE: 10 mM Tris-HCl pH 7.8, 150 mM NaCl, 1 mM EDTA, 1% Igepal CA-630) on anti-Flag 96-well plates, 2 h at 4 °C; co-precipitated Renilla luciferase activity, TrxGA background subtracted, percent of wild-type Smad3.

The target in test [2] is T2, Smurf2 Smad-binding domain (amino acids 252–330) on the Flag-thioredoxin scaffold (UniProt Q9HAU4 252-330).
T2 construct: Smurf2, amino acids 252–330; also called Smurf2 aa252–330; TrxSmurf2; source: HEK-293, transfected, in lysate
The description is as above.

Test [3] has as its target T3, SARA Smad-binding domain (amino acids 665–721) on the 3xFlag-thioredoxin scaffold (UniProt O95405 767-823).
T3 construct: SARA, amino acids 665–721; cloned into the unique RsrII site of pCI-3xFLAG-Trx; also called SARA aa665–721; TrxSARA; source: HEK-293, transfected, in lysate
T3 sequence (looked up): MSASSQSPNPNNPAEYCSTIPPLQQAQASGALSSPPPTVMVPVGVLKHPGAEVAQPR
Described as above.

For test [4], the target named is T3, SARA Smad-binding domain (amino acids …). Kind of test: co-IP; LUMIER as a1 but without co-expression of the activated Alk5 kinase (Smad3 not phosphorylated); percent of phosphorylated wild-type Smad3.
The target of a further test is T4, Flag-Smad4, full length (UniProt Q13485 1-552).
T4 construct: Smad4; plasmid pCMV5-Flag-Smad4 (from J. Massagué); also called Smad4 FL; source: HEK-293, transfected, in lysate
T4 sequence (looked up): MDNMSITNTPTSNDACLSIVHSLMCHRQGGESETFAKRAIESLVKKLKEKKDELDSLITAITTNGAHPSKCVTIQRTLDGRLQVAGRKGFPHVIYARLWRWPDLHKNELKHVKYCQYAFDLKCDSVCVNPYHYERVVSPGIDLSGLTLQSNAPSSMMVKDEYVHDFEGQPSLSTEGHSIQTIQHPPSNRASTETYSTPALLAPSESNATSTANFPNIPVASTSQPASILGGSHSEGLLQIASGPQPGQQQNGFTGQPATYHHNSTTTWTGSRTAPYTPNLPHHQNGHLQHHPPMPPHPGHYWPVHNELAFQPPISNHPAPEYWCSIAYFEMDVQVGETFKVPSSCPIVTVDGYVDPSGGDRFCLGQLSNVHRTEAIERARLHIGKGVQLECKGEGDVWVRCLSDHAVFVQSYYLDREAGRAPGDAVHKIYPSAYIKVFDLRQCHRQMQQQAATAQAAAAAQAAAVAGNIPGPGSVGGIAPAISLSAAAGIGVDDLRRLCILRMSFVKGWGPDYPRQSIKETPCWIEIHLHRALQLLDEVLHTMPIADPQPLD
As to the kind of experiment: co-IP; LUMIER: Renilla luciferase-Smad3 and Flag-tagged partner co-expressed with constitutively active Alk5 in HEK-293; Flag protein captured from cleared lysate (TNE: 10 mM Tris-HCl pH 7.8, 150 mM NaCl, 1 mM EDTA, 1% Igepal CA-630) on anti-Flag 96-well plates, 2 h at 4 °C; co-precipitated Renilla luciferase activity, TrxGA background subtracted, percent of wild-type Smad3.

T2 sequence (Q9HAU4 252-330): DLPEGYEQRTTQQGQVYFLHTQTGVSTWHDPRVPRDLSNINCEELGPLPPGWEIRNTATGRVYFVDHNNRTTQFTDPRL

B1: Renilla luciferase-Smad3 wild type, co-expressed with constitutively active Alk5 (phosphorylated Smad3) (natural protein, UniProt P84022 1-425, looked up)
chain: MSSILPFTPPIVKRLLGWKKGEQNGQEEKWCEKAVKSLVKKLKKTGQLDELEKAITTQNVNTKCITIPRSLDGRLQVSHRKGLPHVIYCRLWRWPDLHSHHELRAMELCEFAFNMKKDEVCVNPYHYQRVETPVLPPVLVPRHTEIPAEFPPLDDYSHSIPENTNFPAGIEPQSNIPETPPPGYLSEDGETSDHQMNHSMDAGSPNLSPNPMSPAHNNLDLQPVTYCEPAFWCSISYYELNQRVGETFHASQPSMTVDGFTDPSNSERFCLGLLSNVNRNAAVELTRRHIGRGVRLYYIGGEVFAECLSDSAIFVQSPNCNQRYGWHPATVCKIPPGCNLKIFNNQEFAALLAQSVNQGFEAVYQLTRMCTIRMSFVKGWGAEYRRQTVTSTPCWIELHLNGPLQWLDKVLTQMGSPSIRCSSVS
modifications: phosphorylated by the co-expressed activated Alk5 kinase (sites not given)
notes: Smad3; plasmid pCMV5-hRLuc-Smad3 (from J. Wrana); also called Smad3 WT+Alk5; Renilla-Smad3; source: HEK-293, transfected together with constitutively active Alk5, in lysate
Regarding B1, the “percent binding relative to wild-type Smad3” value in test [1], in test [2] and in test [3] was 100% each time.

B2: Renilla luciferase-Smad3 wild type, without Alk5 (not phosphorylated) (natural protein, UniProt P84022 1-425, looked up)
chain: B1 chain
notes: Smad3; also called Smad3 WT, No Alk5; source: HEK-293, transfected without Alk5, in lysate
As to B2, the “percent binding relative to wild-type Smad3” value in test [4] worked out at 78%.

B3: Renilla luciferase-Smad3 QPSMT/SE mutant (residues 252–256 and 266–267 changed to the Smad1 equivalents STSVL/NKN) (natural protein, UniProt P84022 1-425, looked up)
chain: MSSILPFTPPIVKRLLGWKKGEQNGQEEKWCEKAVKSLVKKLKKTGQLDELEKAITTQNVNTKCITIPRSLDGRLQVSHRKGLPHVIYCRLWRWPDLHSHHELRAMELCEFAFNMKKDEVCVNPYHYQRVETPVLPPVLVPRHTEIPAEFPPLDDYSHSIPENTNFPAGIEPQSNIPETPPPGYLSEDGETSDHQMNHSMDAGSPNLSPNPMSPAHNNLDLQPVTYCEPAFWCSISYYELNQRVGETFHASSTSVLVDGFTDPSNNKNRFCLGLLSNVNRNAAVELTRRHIGRGVRLYYIGGEVFAECLSDSAIFVQSPNCNQRYGWHPATVCKIPPGCNLKIFNNQEFAALLAQSVNQGFEAVYQLTRMCTIRMSFVKGWGAEYRRQTVTSTPCWIELHLNGPLQWLDKVLTQMGSPSIRCSSVS
notes: Smad3 with two stretches replaced by those of Smad1; source plasmid pcDNA3-Flag-Smad3(STSVL/NKN) from K. Miyazono; assayed as Renilla fusion; also called Smad3(STSVL/NKN); Smad1/3 chimeric protein; source: HEK-293, transfected together with constitutively active Alk5, in lysate
Turning to B3, the “percent binding relative to wild-type Smad3” value in test [1] was determined as 4%; with Flag-Smad4, full length, 132%; in test [2] it was 86%; in test [3], 61%.

The record behind these values is paper PMC3176292, “Mutations in Protein-Binding Hot-Spots on the Hub Protein Smad3 Differentially Affect Its Protein Interactions and Smad3-Regulated Gene Expression” (PLoS ONE, 2011).
